PMC6615629, “Hsp70-nucleotide exchange factor (NEF) Fes1 has non-NEF roles in degradation of gluconeogenic enzymes and cell wall integrity” (PLoS Genetics, 2019)

Experiments:
Details in all cases: both partners purified
His6-Fbp1Δ2–12 = target: T1, His6-Fbp1Δ2–12 (yeast (S. cerevisiae), UniProt P09201 1-348, Δ2–12); assay: pull-down; His6-Fbp1 (wild type or mutant) pulled down on Talon metal affinity resin; reactions with two or all three proteins; 6 μg each of His6-Fbp1 (1.6 μM), Hsp70 (0.9 μM) and GST-Fes1 (1.09 μM), with or without ATP, ADP or AMP (2.5 mM); 50 mM Tris-HCl pH 7.5, 150 mM NaCl, 2% glycerol, 5 mM MgCl2; 30 min at 4°C; washed with 5 mM imidazole, eluted with 250 mM imidazole; stained SDS-PAGE gels, bands quantified …
T1 construct: Fbp1, yeast gluconeogenic enzyme, lacking amino acid residues 2–12; the initiator methionine is counted as residue 1; source: E. coli expression, purified; not shown: His6, N-terminal, kept
T1 sequence (looked up): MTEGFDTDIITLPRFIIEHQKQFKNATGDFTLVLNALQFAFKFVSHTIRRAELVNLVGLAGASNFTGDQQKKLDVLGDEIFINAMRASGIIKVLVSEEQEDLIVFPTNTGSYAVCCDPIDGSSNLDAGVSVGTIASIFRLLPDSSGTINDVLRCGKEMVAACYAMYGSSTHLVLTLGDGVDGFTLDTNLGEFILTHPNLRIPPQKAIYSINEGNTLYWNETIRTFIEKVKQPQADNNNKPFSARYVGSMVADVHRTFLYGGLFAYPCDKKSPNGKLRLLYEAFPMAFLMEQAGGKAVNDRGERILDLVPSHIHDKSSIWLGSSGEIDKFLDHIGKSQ

His6-Fbp1^P2A,S12A,T13A = target: T2, His6-Fbp1^P2A,S12A,T13A (yeast (S. cerevisiae), UniProt P09201 1-348, P2A | S12A | T13A); assay: as above
T2 construct: Fbp1, yeast gluconeogenic enzyme, P2A,S12A,T13A; the initiator methionine is counted as residue 1; source: E. coli expression, purified; not shown: His6, N-terminal, kept
T2 sequence (looked up): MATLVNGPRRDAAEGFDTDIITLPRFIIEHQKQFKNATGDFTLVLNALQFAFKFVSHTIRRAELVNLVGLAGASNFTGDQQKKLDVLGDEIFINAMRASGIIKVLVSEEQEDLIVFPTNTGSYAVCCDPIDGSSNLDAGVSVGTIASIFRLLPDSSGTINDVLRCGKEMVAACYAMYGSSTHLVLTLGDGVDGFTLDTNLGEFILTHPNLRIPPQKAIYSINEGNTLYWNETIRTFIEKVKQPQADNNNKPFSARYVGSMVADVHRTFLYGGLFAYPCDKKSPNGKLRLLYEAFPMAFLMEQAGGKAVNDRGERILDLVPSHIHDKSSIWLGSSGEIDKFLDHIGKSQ

Ssa1 = target: T3, Ssa1 (yeast (S. cerevisiae), UniProt P10591 1-642); assay: pull-down; GST-Fes1 (wild type or mutant, or GST alone) pulled down on glutathione resin; reactions with two or all three proteins; 6 μg each of His6-Fbp1 (1.6 μM), Hsp70 (0.9 μM) and GST-Fes1 (1.09 μM), with or without ATP, ADP or AMP (2.5 mM); 50 mM Tris-HCl pH 7.5, 150 mM NaCl, 2% glycerol, 5 mM MgCl2; 30 min at 4°C; stained SDS-PAGE gels
T3 construct: Ssa1, yeast cytosolic Hsp70; non-tagged; also called Hsp70; source: E. coli Rosetta 2(DE3), purified as described [51]
T3 sequence (P10591 whole entry): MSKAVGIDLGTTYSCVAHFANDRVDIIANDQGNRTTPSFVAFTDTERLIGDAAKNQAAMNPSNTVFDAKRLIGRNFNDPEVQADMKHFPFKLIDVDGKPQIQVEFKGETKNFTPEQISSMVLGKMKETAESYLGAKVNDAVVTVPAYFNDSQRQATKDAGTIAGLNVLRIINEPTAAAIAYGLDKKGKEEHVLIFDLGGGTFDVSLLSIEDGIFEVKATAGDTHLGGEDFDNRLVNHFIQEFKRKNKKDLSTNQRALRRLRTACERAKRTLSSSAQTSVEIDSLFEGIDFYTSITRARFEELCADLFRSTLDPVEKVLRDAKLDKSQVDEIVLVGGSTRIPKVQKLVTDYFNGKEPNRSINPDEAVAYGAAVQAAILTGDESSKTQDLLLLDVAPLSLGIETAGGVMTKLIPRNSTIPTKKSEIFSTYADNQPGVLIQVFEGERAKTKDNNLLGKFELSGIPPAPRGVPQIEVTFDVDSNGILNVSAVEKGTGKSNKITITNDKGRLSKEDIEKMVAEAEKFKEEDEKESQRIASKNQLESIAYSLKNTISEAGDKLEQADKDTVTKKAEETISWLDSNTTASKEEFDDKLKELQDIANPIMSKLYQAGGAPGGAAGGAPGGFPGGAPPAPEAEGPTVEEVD

Ssa2 = target: T4, Ssa2 (yeast (S. cerevisiae), UniProt P10592 1-639); assay: as above
T4 construct: Ssa2, yeast cytosolic Hsp70; non-tagged; also called Hsp70; source: E. coli Rosetta 2(DE3), purified as described [51]
T4 sequence (P10592 whole entry): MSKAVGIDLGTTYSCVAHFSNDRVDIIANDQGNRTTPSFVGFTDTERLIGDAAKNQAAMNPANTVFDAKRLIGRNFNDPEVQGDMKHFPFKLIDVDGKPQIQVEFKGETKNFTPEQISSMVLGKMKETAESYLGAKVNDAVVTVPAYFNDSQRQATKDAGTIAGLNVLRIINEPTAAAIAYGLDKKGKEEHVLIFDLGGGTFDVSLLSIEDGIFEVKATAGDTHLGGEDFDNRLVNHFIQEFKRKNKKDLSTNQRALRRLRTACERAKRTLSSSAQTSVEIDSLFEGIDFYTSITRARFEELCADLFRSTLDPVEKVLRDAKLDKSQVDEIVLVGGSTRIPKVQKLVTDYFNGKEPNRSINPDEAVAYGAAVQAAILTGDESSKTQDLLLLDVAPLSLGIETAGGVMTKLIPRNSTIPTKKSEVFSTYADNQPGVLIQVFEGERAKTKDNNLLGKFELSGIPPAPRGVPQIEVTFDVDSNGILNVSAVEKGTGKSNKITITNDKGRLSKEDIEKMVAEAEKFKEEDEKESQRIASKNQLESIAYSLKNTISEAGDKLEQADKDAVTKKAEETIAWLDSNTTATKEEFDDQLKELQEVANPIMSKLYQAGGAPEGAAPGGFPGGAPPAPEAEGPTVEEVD

His6-Fbp1 = target: T5, His6-Fbp1 (yeast (S. cerevisiae), UniProt P09201 1-348); assay: pull-down; His6-Fbp1 (wild type or mutant) pulled down on Talon metal affinity resin; reactions with two or all three proteins; 6 μg each of His6-Fbp1 (1.6 μM), Hsp70 (0.9 μM) and GST-Fes1 (1.09 μM), with or without ATP, ADP or AMP (2.5 mM); 50 mM Tris-HCl pH 7.5, 150 mM NaCl, 2% glycerol, 5 mM MgCl2; 30 min at 4°C; washed with 5 mM imidazole, eluted with 250 mM imidazole; stained SDS-PAGE gels, bands quantified …
T5 construct: Fbp1, yeast gluconeogenic enzyme; the initiator methionine is present in the purified protein and is counted as residue 1; also called wild type His6-Fbp1; not shown: His6, N-terminal, kept
T5 sequence (looked up): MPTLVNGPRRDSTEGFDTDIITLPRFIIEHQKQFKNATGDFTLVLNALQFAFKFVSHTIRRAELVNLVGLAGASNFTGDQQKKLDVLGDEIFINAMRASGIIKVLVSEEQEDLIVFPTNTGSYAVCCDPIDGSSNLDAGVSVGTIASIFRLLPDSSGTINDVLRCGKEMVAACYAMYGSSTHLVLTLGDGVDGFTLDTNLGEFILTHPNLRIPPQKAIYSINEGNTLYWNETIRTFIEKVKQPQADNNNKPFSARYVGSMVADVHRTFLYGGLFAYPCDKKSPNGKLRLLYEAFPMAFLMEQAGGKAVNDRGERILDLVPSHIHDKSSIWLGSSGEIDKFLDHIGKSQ

- binding result (His6-Fbp1Δ2–12): binds
- binding result (His6-Fbp1^P2A,S12A,T13A): binds
- binding result (Ssa1): binds
- binding result (Ssa2): binds
- ratio of amounts Fes1/Ssa1 pulled down by Fbp1, no nucleotide (His6-Fbp1): 0.23
- ratio of amounts Fes1/Ssa1 pulled down by Fbp1, with ADP (His6-Fbp1): 0.5
- ratio of amounts Fes1/Ssa1 pulled down by Fbp1, with AMP (His6-Fbp1): 0.18
- ratio of amounts Fes1/Ssa1 pulled down by Fbp1, with ATP (His6-Fbp1): 0.58
- ratio of amounts Fes1/Ssa2 pulled down by Fbp1, no nucleotide (His6-Fbp1): 0.33
- ratio of amounts Fes1/Ssa2 pulled down by Fbp1, with ADP (His6-Fbp1): 0.67
- ratio of amounts Fes1/Ssa2 pulled down by Fbp1, with AMP (His6-Fbp1): 0.32
- ratio of amounts Fes1/Ssa2 pulled down by Fbp1, with ATP (His6-Fbp1): 0.79
B1: GST-Fes1 (natural protein, yeast (S. cerevisiae), UniProt P38260 1-290, looked up)
chain: MEKLLQWSIANSQGDKEAMARAGQPDPKLLQQLFGGGGPDDPTLMKESMAVIMNPEVDLETKLVAFDNFEMLIENLDNANNIENLKLWEPLLDVLVQTKDEELRAAALSIIGTAVQNNLDSQNNFMKYDNGLRSLIEIASDKTKPLDVRTKAFYALSNLIRNHKDISEKFFKLNGLDCIAPVLSDNTAKPKLKMRAIALLTAYLSSVKIDENIISVLRKDGVIESTIECLSDESNLNIIDRVLSFLSHLISSGIKFNEQELHKLNEGYKHIEPLKDRLNEDDYLAVKYVL
notes: Fes1, yeast Hsp70 nucleotide exchange factor; also called wild type GST-Fes1; source: E. coli expression, purified as described [15]; not shown: GST, N-terminal, kept
